test system: Escherichia coli TOP10; assay: shrunken log2 fold change of peptide-encoding DNA abundance (4.5 h post-induction vs induction); higher = less antimicrobial activity (less host growth inhibition); conditions: time post-induction: 4.5 h; library: site-saturation at positions 5, 18, 19, 20
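Note: peptides expressed intracellularly from a pBAD plasmid library in pooled LB shake-flask culture, induced with 0.3% L-arabinose, DNA abundance read by NGS, three biological replicates, DESeq2 with apeglm shrinkage.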

Sequence	shrunken log2 fold change
RRIRQRPPRLPRPRPRPGMKPRP	-0.0822
RRIRKRPPRLPRPRPRPTPHPRP	0.653
RRIRRRPPRLPRPRPRPDLEPRP	0.0267
RRIRVRPPRLPRPRPRPNNWPRP	-0.183
RRIRFRPPRLPRPRPRPVRLPRP	0.0919
RRIRCRPPRLPRPRPRPIWEPRP	0.0488
RRIRCRPPRLPRPRPRPCRSPRP	0.118
RRIRARPPRLPRPRPRPDSYPRP	-0.111
RRIRIRPPRLPRPRPRPNRKPRP	0.00157
RRIRLRPPRLPRPRPRPWNLPRP	-0.0149
RRIRVRPPRLPRPRPRPSLKPRP	0.215
RRIRNRPPRLPRPRPRPGIWPRP	0.0115
RRIRTRPPRLPRPRPRPGPMPRP	0.101
RRIRNRPPRLPRPRPRPFVSPRP	-0.394
RRIRPRPPRLPRPRPRPPEKPRP	0.544
RRIRFRPPRLPRPRPRPINVPRP	-0.195
RRIRDRPPRLPRPRPRPDTEPRP	0.0738
RRIRNRPPRLPRPRPRPPSWPRP	0.161
RRIRHRPPRLPRPRPRPIVFPRP	-0.103
RRIRVRPPRLPRPRPRPPDRPRP	0.379
RRIRERPPRLPRPRPRPWLAPRP	0.564
RRIRRRPPRLPRPRPRPDWRPRP	0.36
RRIRFRPPRLPRPRPRPTHLPRP	0.222
RRIRYRPPRLPRPRPRPNVFPRP	0.0662
RRIRPRPPRLPRPRPRPVKPPRP	-0.14

Sequence	shrunken log2 fold change
RRIRERPPRLPRPRPRPNMEPRP	-0.384
RRIRYRPPRLPRPRPRPWRTPRP	-0.298
RRIRHRPPRLPRPRPRPYDSPRP	-0.0275
RRIRWRPPRLPRPRPRPHVDPRP	-0.127
RRIRERPPRLPRPRPRPYNNPRP	-0.822
RRIRCRPPRLPRPRPRPRYMPRP	-0.402
RRIRPRPPRLPRPRPRPQDDPRP	-0.367
RRIRKRPPRLPRPRPRPQRVPRP	0.146
RRIRTRPPRLPRPRPRPNRHPRP	-0.36
RRIRTRPPRLPRPRPRPRSEPRP	0.116
RRIRQRPPRLPRPRPRPLLNPRP	-0.29
RRIRYRPPRLPRPRPRPHATPRP	-0.191
RRIRQRPPRLPRPRPRPKKWPRP	-0.0403
RRIRDRPPRLPRPRPRPIASPRP	0.194
RRIRIRPPRLPRPRPRPTAAPRP	0.116
RRIRFRPPRLPRPRPRPRCIPRP	-0.606
RRIRWRPPRLPRPRPRPDSRPRP	-0.251
RRIRHRPPRLPRPRPRPWAEPRP	-0.119
RRIRQRPPRLPRPRPRPWCWPRP	0.304
RRIRVRPPRLPRPRPRPCEGPRP	-0.0149
RRIRIRPPRLPRPRPRPVEFPRP	-0.0453
RRIRDRPPRLPRPRPRPGVVPRP	0.708
RRIRLRPPRLPRPRPRPGHPPRP	0.0236
RRIRIRPPRLPRPRPRPLKDPRP	-0.0958
RRIRIRPPRLPRPRPRPQCSPRP	-0.46

Sequence	shrunken log2 fold change
RRIRQRPPRLPRPRPRPEGVPRP	0.381
RRIRNRPPRLPRPRPRPEVNPRP	-0.0723
RRIRHRPPRLPRPRPRPPCWPRP	0.142
RRIRMRPPRLPRPRPRPFRNPRP	-0.0431
RRIRHRPPRLPRPRPRPWPCPRP	-0.027
RRIRIRPPRLPRPRPRPKDTPRP	-0.224
RRIRARPPRLPRPRPRPVRWPRP	0.88
RRIRHRPPRLPRPRPRPSRVPRP	-0.0634
RRIRTRPPRLPRPRPRPSHMPRP	-0.7
RRIRGRPPRLPRPRPRPEGIPRP	-0.0235
RRIRIRPPRLPRPRPRPLNGPRP	-0.0474
RRIRHRPPRLPRPRPRPYADPRP	-0.00783
RRIRQRPPRLPRPRPRPPSGPRP	0.352
RRIRDRPPRLPRPRPRPLNVPRP	-0.029
RRIRVRPPRLPRPRPRPLGLPRP	0.122
RRIRGRPPRLPRPRPRPVNYPRP	0.203
RRIRYRPPRLPRPRPRPLIAPRP	-0.668
RRIRMRPPRLPRPRPRPVAQPRP	0.963
RRIRFRPPRLPRPRPRPPHPPRP	0.615
RRIRGRPPRLPRPRPRPTCHPRP	0.893
RRIRFRPPRLPRPRPRPKEPPRP	-0.135
RRIRIRPPRLPRPRPRPSDAPRP	-0.0664
RRIRERPPRLPRPRPRPEGWPRP	0.668
RRIRLRPPRLPRPRPRPWRIPRP	0.0246
RRIRERPPRLPRPRPRPGMDPRP	-0.696

Sequence	shrunken log2 fold change
RRIRARPPRLPRPRPRPCKKPRP	-0.0968
RRIRSRPPRLPRPRPRPPIQPRP	0.0395
RRIRARPPRLPRPRPRPTNEPRP	0.344
RRIRHRPPRLPRPRPRPAVRPRP	-0.273
RRIRRRPPRLPRPRPRPGCYPRP	0.17
RRIRFRPPRLPRPRPRPGCDPRP	0.106
RRIRPRPPRLPRPRPRPLDFPRP	-0.116
RRIRTRPPRLPRPRPRPSPEPRP	0.0171
RRIRWRPPRLPRPRPRPRYSPRP	-0.136
RRIRVRPPRLPRPRPRPNMQPRP	-0.33
RRIRMRPPRLPRPRPRPWWVPRP	-0.129
RRIRPRPPRLPRPRPRPHQMPRP	0.0123
RRIRERPPRLPRPRPRPANYPRP	-0.0934
RRIRRRPPRLPRPRPRPICVPRP	0.0261
RRIRHRPPRLPRPRPRPMGSPRP	-0.0537
RRIRNRPPRLPRPRPRPKMLPRP	-0.043
RRIRTRPPRLPRPRPRPFVKPRP	-0.838
RRIRFRPPRLPRPRPRPTILPRP	-0.453
RRIRMRPPRLPRPRPRPGDTPRP	0.064
RRIRARPPRLPRPRPRPDNQPRP	0.0635
RRIRYRPPRLPRPRPRPIREPRP	-0.271
RRIRARPPRLPRPRPRPIFQPRP	0.116
RRIRKRPPRLPRPRPRPQYDPRP	-0.212
RRIRWRPPRLPRPRPRPFESPRP	-0.0622
RRIRCRPPRLPRPRPRPQENPRP	-0.0731

Sequence	shrunken log2 fold change
RRIRLRPPRLPRPRPRPCFAPRP	0.179
RRIRERPPRLPRPRPRPTDDPRP	-0.00106
RRIRGRPPRLPRPRPRPMLGPRP	1.19
RRIRWRPPRLPRPRPRPPDLPRP	0.888
RRIRWRPPRLPRPRPRPYWYPRP	-1.33
RRIRCRPPRLPRPRPRPWMAPRP	-0.333
RRIRTRPPRLPRPRPRPMSMPRP	-0.171
RRIRPRPPRLPRPRPRPHYHPRP	-0.936
RRIRRRPPRLPRPRPRPGLDPRP	0.161
RRIRPRPPRLPRPRPRPPCEPRP	0.522
RRIRDRPPRLPRPRPRPKLTPRP	-0.0121
RRIRPRPPRLPRPRPRPEGAPRP	0.713
RRIRDRPPRLPRPRPRPRSCPRP	0.2
RRIRQRPPRLPRPRPRPGCPPRP	0.414
RRIRTRPPRLPRPRPRPGNKPRP	-0.0505
RRIRFRPPRLPRPRPRPFDNPRP	-0.31
RRIRPRPPRLPRPRPRPSRGPRP	0.839
RRIRSRPPRLPRPRPRPYYHPRP	-0.44
RRIRLRPPRLPRPRPRPRDWPRP	0.847
RRIRFRPPRLPRPRPRPANKPRP	-0.546
RRIRKRPPRLPRPRPRPSYMPRP	-0.0995
RRIRDRPPRLPRPRPRPVMQPRP	0.023
RRIRTRPPRLPRPRPRPMLKPRP	-0.106
RRIRARPPRLPRPRPRPSVRPRP	-0.0488
RRIRPRPPRLPRPRPRPQRGPRP	0.251

Sequence	shrunken log2 fold change
RRIRLRPPRLPRPRPRPEEIPRP	-0.012
RRIRIRPPRLPRPRPRPHRMPRP	-1.01
RRIRSRPPRLPRPRPRPFGEPRP	-0.066
RRIRERPPRLPRPRPRPEVCPRP	-0.0484
RRIRKRPPRLPRPRPRPYRIPRP	-0.0846
RRIRKRPPRLPRPRPRPFAMPRP	0.359
RRIRNRPPRLPRPRPRPWCEPRP	0.034
RRIRFRPPRLPRPRPRPYQKPRP	-1.08
RRIRRRPPRLPRPRPRPATQPRP	0.691
RRIRGRPPRLPRPRPRPPDGPRP	1.99
RRIRGRPPRLPRPRPRPKNVPRP	0.0302
RRIRMRPPRLPRPRPRPAYTPRP	-0.0493
RRIRLRPPRLPRPRPRPKVSPRP	0.0482
RRIRIRPPRLPRPRPRPVNIPRP	-0.17
RRIRIRPPRLPRPRPRPEQIPRP	-9e-05
RRIRNRPPRLPRPRPRPGGDPRP	0.00185
RRIRVRPPRLPRPRPRPLTWPRP	-0.195
RRIRSRPPRLPRPRPRPCDQPRP	-0.0341
RRIRIRPPRLPRPRPRPFDGPRP	-0.262
RRIRIRPPRLPRPRPRPITLPRP	-0.237
RRIRGRPPRLPRPRPRPPMFPRP	0.295
RRIRVRPPRLPRPRPRPNCHPRP	-0.201
RRIRVRPPRLPRPRPRPQAIPRP	-0.0973
RRIRKRPPRLPRPRPRPDARPRP	-0.0173
RRIRIRPPRLPRPRPRPCNEPRP	-0.0608

Reference: the supplement of paper PMC9112550, “Optimization of the antimicrobial peptide Bac7 by deep mutational scanning” (BMC Biology, 2022)
